Consider two molecules from article PMC6508567 (2018).

The chains are these.
B1: serpin Z4 (natural protein)
chain: MATTLATDVRLSIAHQTRFALRLRSAISSNPERAAGNVAFSPLSLHVALSLITAGAAATRDQLVAILGDGGAGDAKELNALAEQVVQFVLANESSTGGPRIAFANGIFVDASLSLKPSFEELAVCQYKAKTQSVDFQHKTLEAVGQVNSWVEQVTTGLIKQILPPGSVDNTTKLILGNALYFKGAWDQKFDESNTKCDSFHLLDGSSIQTQFMSSTKKQYISSSDNLKVLKLPYAKGHDKRQFSMYILLPGAQDGLWSLAKRLSTEPEFIENHIPKQTVEVGRFQLPKFKISYQFEASSLLRALGLQLPFSEEADLSEMVDSSQGLEISHVFHKSFVEVNEEGTEAGAATVAMGVAMSMPLKVDLVDFVANHPFLFLIREDIAGVVVFVGHVTNPLISA
B2: β-amylase WT (enzyme)
chain: MEVNVKGNYVQVYVMLPLDAVSVNNRFEKGDELRAQLRKLVEAGVDGVMVDVWWGLVEGKGPKAYDWSAYKQLFELVQKAGLKLQAIMSFHQCGGNVGDAVNIPIPQWVRDVGTCDPDIFYTDGHGTRNIEYLTLGVDNQPLFHGRSAVQMYADYMTSFRENMKEFLDAGVIVDIEVGLGPAGEMRYPSYPQSHGWSFPGIGEFICYDKYLQADFKAAAAAVGHPEWEFPNDVGQYNDTPERTQFFRDNGTYLSEKGRFFLAWYSNNLIKHGDRILDEANKVFLGYKVQLAIKISGIHWWYKVPSHAAELTAGYYNLHDRDGYRTIARMLKRHRASINFTCAEMRDSEQSSQAMSAPEELVQQVLSAGWREGLNVACENALPRYDPTAYNTILRNARPHGINQSGPPEHKLFGFTYLRLSNQLVEGQNYANFKTFVDRMHANLPRDPYVDPMAPLPRSGPEISIEMILQAAQPKLQPFPFQEHTDLPVGPTGGMGGQAEGPTCGMGGQVKGPTGGMGGQAEDPTSGIGGELPATM

Test [1] addresses B2. Briefly: MST; β-amylase labelled, serpin Z4 titrated.
Test [2] deals with B2. Briefly: SPR; β-amylase immobilised. In general terms: Surface plasmon resonance follows binding to a sensor surface in real time, without labels.
The target in test [3] is B1. Description: SPR; serpin Z4 immobilised.

As usually defined, the Kd is the concentration at which binding is half-saturated. One may read the koff as a measure of how fast the partners let go of each other.

B1 registered a dissociation constant Kd in test [1] of 215 nM. This molecule also displayed a koff in test [2] of 0.00263 s⁻¹. Regarding B2, the koff in test [3] stood at 0.00243 s⁻¹.
